The text below walks through data of PMC3577348 (Science (New York, N.Y.), 2012).

The chains are these.
B1: human Fz5-CRD (residues 30-150), biotinylated (domain or fragment, UniProt Q13467 30-150, looked up)
chain: APVCQEITVPMCRGIGYNLTHMPNQFNHDTQDEAGLEVHQFWPLVEIQCSPDLRFFLCSMYTPICLPDYHKPLPPCRSVCERAKAGCSPLMRQYGFAWPERMSCDRLPVLGRDAEVLCMDY
modifications: biotin on the BAP-tag (enzymatic, GST-BirA ligase)
B2: mouse Fz8-CRD (residues 32-151), biotinylated (domain or fragment, UniProt Q61091 32-151, looked up)
chain: ELACQEITVPLCKGIGYNYTYMPNQFNHDTQDEAGLEVHQFWPLVEIQCSPDLKFFLCSMYTPICLEDYKKPLPPCRSVCERAKAGCAPLMRQYGFAWPDRMRCDRLPEQGNPDTLCMDY
modifications: biotin on the BAP-tag (enzymatic, GST-BirA ligase)

Experiment [1] addresses T1, mini-XWnt8 (C-terminal fragment of XWnt8, residues 248-338) displayed on yeast (Xenopus, UniProt P28026 248-338).
T1 sequence (looked up): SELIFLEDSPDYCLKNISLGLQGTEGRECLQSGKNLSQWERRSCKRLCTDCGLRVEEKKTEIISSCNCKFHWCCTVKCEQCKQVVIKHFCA
Briefly: flow cytometry on cells. Background: In flow cytometry, cells or beads pass a laser one at a time.

For experiment [2], the target named is B2. Briefly: SPR. On the technique in general: SPR reads the build-up and loss of mass on a sensor chip optically.
Experiment [3] concerns the target B1. The experiment is described as follows: SPR.

In the case of B1, the “percent of yeast stained” value in experiment [1] was roughly 30%.

As to B2, the “percent of yeast stained” value in experiment [1] is roughly 50%.

B3: soluble mini-XWnt8 (residues 248-338) with C-terminal six-histidine tag (domain or fragment, Xenopus, UniProt P28026 248-338, looked up)
chain: SELIFLEDSPDYCLKNISLGLQGTEGRECLQSGKNLSQWERRSCKRLCTDCGLRVEEKKTEIISSCNCKFHWCCTVKCEQCKQVVIKHFCA
On to B3, for which the Kd in experiment [2] was roughly 2.4 µM; in experiment [3] it was roughly 3.5 µM.

For orientation: Kd means a measure of binding affinity in units of concentration. Low readings indicate tighter binding, high ones weaker binding.
